{
  "source": "patent US6353153B1",
  "about": "“Enhanced transport with a plastid membrane transport protein” (priority 1996, dated 2002)",
  "molecules": {"B1": {"name": "Bce44B: plastid transport protein, Brassica napus 44 kDa chloroplast envelope protein, member of Com44/Cim44, encoded by SEQ ID NO:1 (protein)", "chain": "MQTAMKTMMNQMNTQNSQFNNPGFPTGAGAGAGSPFPFPFPPQTSPTTSPFQPQSQSSGATVDLTATKVDRPPVSKPQPTPIPPTKSIEVYKPSVVVEENKAMKEEKNYAFEDVSPEETTKESPFSNYEEVSETSAPKETRLFDDVLQNGAAPANGATASDVFQSLGAGKGWAGGSVEVLEKMIEYPTFQKMLYPHLPEEMRNPESFKWVRKNPQYRQQLQDMLNNMSESGEWDKRMTETLKNFDPNSPEVKQGFDQLGLTPEEVISKIMENPDVSMAFQNPRVEAALMDCSENPMNIMKYQNDKEVMDVFNKISQLFPGLTG"}},
  "format_in_all_cases": "cell-based, Escherichia coli",
  "key": {"[1]": {"test_system": "alkaline phosphatase translocation in E. coli JM109 (DE3)", "assay": "Induction and transport of alkaline phosphatase under phosphate starvation (immunoblot)", "details": "low phosphate (50 μM), cells harvested at the two growth peaks", "text": "The directionality of the distribution of Bce44B in the cytoplasmic membrane and the capability of the bacterium to recognize and integrate Bce44B into the membrane raised the possibility that Bce44B may be functional as a foreign component of the bacterial protein transport apparatus. Functionality of Bce44B was therefore assessed by monitoring two transported bacterial proteins, alkaline phosphatase and , β-lactamase. Alkaline phosphatase is a single copy gene and is transported into the periplasm upon induction by phosphate starvation (50 μM) (Torriani et al. (1960) Biochim. Biophys. Acta. 38:460). The growth characteristics of Bce44B-containing bacteria were compared to those of a strain expressing Oee1-Dhfr, a chimeric chloroplast protein precursor. The expression vector used in the Oee1-Dhfr transformed strain was the same as the one in the Bce44B transformed cells. Growth was monitored in M9 minimal media with growth-permissive phosphate levels or with low phosphate levels (50 μM).\nThe induction and analysis of alkaline phosphatase was performed as described by Torniani et al. (1960) Biochim. Biophys. Acta. 38:460. […]"}, "[2]": {"test_system": "β-lactamase transport in E. coli MM52 (secAts)", "assay": "Sodium azide sensitivity of β-lactamase transport in MM52", "details": "MM52 strain, 30° C., two hours, sodium azide 0 to 1 mM", "description": "Overnight cultures of MM52-Bce44B, MM52-Oee1-Dhfr, MC4100-Bce44B, and MC4100-Oee1-Dhfr cells were used as inocula for parallel experiments. These freshly inoculated cultures were grown at 30° C. for two hours in media containing increasing concentrations of sodium azide (from 0 to 1 MM). Cells were then harvested, and normalized according to cell number before analysis. […] Azide sensitivity characteristics were firther assessed by growing both wild-type and mutant bacterial lines in the media containing 0.5 mM sodium azide for 0, 1 and 2 hr.\nSensitivity of the bacterial strains to sodium azide was determined in the same manner as outlined in Oliver el al. (1990) Proc. Natl. Acad. Sci. USA 87:8227. Changes to β-lactamase transport activity in response to sodium azide was used as a monitor of differences in the protein translocation activity of Bce44B- versus Oee1-Ohfr-expressing cells. […]\nThe pBCE44B and pOEEIDHFR plasmids were introduced into E. coli strain MM52 (Oliver and Beckwith, (1981) Cell 25:765) by electroporation using the BioRad Gene Pulser and the supplied protocols for E. coli strains. […] The plasmid-harboring MM52 strains were grown in LB-ampicillin broth and analyzed in the same manner as the JM109(DE3) strains described above."}, "[3]": {"test_system": "β-lactamase translocation in E. coli JM109(DE3)", "assay": "Immunoblot of transported and processed β-lactamase", "details": "per cell basis, four hours, ampicillin 50 μg to 3 mg/ml", "description": "Changes to β-lactamase transport were monitored by two different approaches: 1) the ability to form colonies on solid LB-agar plates containing increasing concentrations of ampicillin (50 μg/ml to 3.0 mg/ml); and 2) the level of transported and processed β-lactamase detected by immunoblotting total protein samples of cells grown in LB-broth containing increasing ampicillin concentrations.\nThe same cells were also used to determine the level of transported β-lactamase grown in media containing increasing concentrations of ampicillin. Cultures were diluted 5× into LB broth with increasing amounts of ampicillin (50 μg/ml to 3.0 mg/ml) and allowed to grow up to 4 hours. The level of transported β-lactamase was monitored by immunoblotting analysis of samples taken at time intervals of 0 hr, 0.5 hr, 1.0 hr, 1.5 hr, 2.0 hr, 3 hr and 4 hr. Immunoblot analysis was performed on total cellular protein samples with anti-p-lactamase antibodies as outlined above."}},
  "data": [
    {"molecule": "B1", "values": [
      {"measurement": "level of processed alkaline phosphatase relative to Oee1-Dhfr-expressing cells", "setting": "[1]", "value": "higher level"},
      {"measurement": "sodium azide concentration at which precursor form of β-lactamase appears", "setting": "[2]", "value": "0.25 to 0.375", "unit": "mM"},
      {"measurement": "level of processed β-lactamase compared with Oee1-Dhfr-expressing cells", "setting": "[3]", "value": "higher"}
    ]}
  ]
}
